Measurements from PMC6932780, “Comprehensive analysis of putative dihydroflavonol 4-reductase gene family in tea plant” (PLoS ONE, 2019).
Changes are numbered by the printed parent chain. Numbers in names are those of the source.

B1: CsDFRa (Camellia sinensis) (protein)
chain: MKDSVASATASAPGTVCVTGAAGFIGSWLVMRLLERGYIVRATVRDPANLKKVKHLLDLPKADTNLTLWKADLNEEGSFDEAIEGCSGVFHVATPMDFESKDPENEVIKPTINGVLSIIRSCTKAKTVKRLVFTSSAGTVNVQEHQQPVFDENNWSDLDFINKKKMTGWMYFVSKTLAEKAAWEAAKENNIDFISIIPTLVVGPFIMPTFPPSLITALSPITRNEGHYSIIKQGQFVHLDDLCESHIFLYERPQAEGRYICSSHDATIHDLAKLMREKWPEYNVPTEFKGIDKDLPVVSFSSKKLIGMGFEFKYSLEDMFRGAIDTCREKGLLPHSFAENPVNGNKV
notes: full-length ORF in pET-32a, E. coli Rosetta (DE3), Ni Sepharose purified, vector tag removal not mentioned
B2: CsDFRa (Camellia sinensis; N141A) (protein)
chain: B1 chain with N141A
notes: as for B1
B3: CsDFRa (Camellia sinensis; N141D) (protein)
chain: B1 chain with N141D
notes: as for B1

How the values were obtained:
Assay in all cases: purified protein
Format in all cases: biochemical, Camellia sinensis
Conditions in all cases: 0.24 mM NADPH, citrate-phosphate buffer pH 7.2, 25°C
[1] = substrate: O=C1c2c(O)cc(O)cc2O[C@H](c2ccc(O)c(O)c2)[C@H]1O
[2] = substrate: O=C1c2c(O)cc(O)cc2O[C@H](c2ccc(O)cc2)[C@H]1O
[3] = substrate: O=C1c2c(O)cc(O)cc2O[C@H](c2cc(O)c(O)c(O)c2)[C@H]1O

Protein | Km [1] [µM] | Km [2] [µM] | Km [3] [µM]
B1 | 8.0 | 539.8 | 43.0
B2 | 88.5 | 398.1 | 90.6
B3 | 252.0 |  | 37.2
